In one experiment the target is ICAM-1D1D5-Fc (human). Briefly: SPR; Biacore T-200; ICAM-1D1D5 Fc immobilized to 1,400 RU on a CM5 chip pre-coupled to Protein A; head structures injected, two-fold dilutions 4 nM to 500 nM, 40 µL/min, 240 s association, 600 s dissociation; 10 mM HEPES pH 8.0, 300 mM NaCl, 0.05% Tween-20; one-site kinetic model. (In general: Surface plasmon resonance follows binding to a sensor surface in real time, without labels.)
For orientation: Kd means the free concentration of one partner at which half of the binding sites on the other are occupied at equilibrium, for simple one-to-one binding. As a reminder, the koff is a measure of how fast the partners let go of each other. By kon is commonly meant the rate constant with which the complex forms. The substance “PFD1235w head structure (CIDRα1.6-DBLβ3) (domain or fragment)” gave a Kd of 18 nM, a koff of 0.000108 s⁻¹ and a kon of 6000 M⁻¹ s⁻¹.

The target in the next experiment is Recombinant His-tagged EPCR (human) (UniProt Q9UNN8). Briefly: SPR; Biacore T-200; biotinylated EPCR immobilized to 650 RU on a CAP chip (Biotin Capture Kit); head structures injected, two-fold dilutions 500 nM to 4 nM, 30 µL/min, 240 s association, 720 s dissociation; 10 mM HEPES pH 7.4, 300 mM NaCl, 0.05% Tween-20, 2 mg/ml ssDNA; one-site kinetic model.
Recombinant His-tagged EPCR (human), sequence (Q9UNN8 18-238): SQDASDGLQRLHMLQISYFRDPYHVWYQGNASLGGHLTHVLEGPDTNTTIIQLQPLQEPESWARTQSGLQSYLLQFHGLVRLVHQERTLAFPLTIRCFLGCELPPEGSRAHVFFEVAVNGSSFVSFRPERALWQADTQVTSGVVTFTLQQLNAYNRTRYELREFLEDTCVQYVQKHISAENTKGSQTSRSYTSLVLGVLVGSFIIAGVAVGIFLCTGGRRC
As to “PFD1235w head structure (CIDRα1.6-DBLβ3) (domain or fragment)”, the Kd worked out at 17.1 nM, the koff is 0.000581 s⁻¹ and the kon was 34000 M⁻¹ s⁻¹.

In the next experiment the target is ICAM-1D1D5-Fc (human). Briefly: SPR; Biacore T-200; ICAM-1D1D5 Fc immobilized to 2100 RU on a CM5 chip pre-coupled to Protein A; wild type or mutant PF11_0521 DBLβ3_D4 injected, two-fold dilutions 4 nM to 500 nM, 40 µL/min, 240 s association, 660 s dissociation; 10 mM HEPES pH 8.0, 300 mM NaCl, 0.05% Tween-20; global fit to a one-site kinetic model.
In turn, “PF11_0521 DBLβ3_D4 G1084A (domain or fragment)” had a Kd of 4060 nM, a koff of 0.0394 s⁻¹ and a kon of 9700 M⁻¹ s⁻¹.
On the same counts, the results for “PF11_0521 DBLβ3_D4 N1089A (domain or fragment)” are 6.3 nM, 0.000114 s⁻¹ and 17900 M⁻¹ s⁻¹.
On to “PF11_0521 DBLβ3_D4 M1071S (domain or fragment)”, for which the Kd was 24.6 nM, the koff amounted to 0.000451 s⁻¹ and the on-rate constant (kon) came to 18400 M⁻¹ s⁻¹.
On to “PF11_0521 DBLβ3_D4 N1082A (domain or fragment)”, for which the Kd amounted to 1320 nM, the koff came to 0.0244 s⁻¹ and the kon was 18400 M⁻¹ s⁻¹.
Consider “PF11_0521 DBLβ3_D4 domain, wild type (domain or fragment)”, for which the Kd is 3.2 nM, the koff worked out at 6.2e-05 s⁻¹ and the kon turned out to be 19300 M⁻¹ s⁻¹.
The substance “PF11_0521 DBLβ3_D4 P1116A (domain or fragment)” gave a Kd of 1690 nM, a koff of 0.00237 s⁻¹ and an association rate constant (kon) of 1300 M⁻¹ s⁻¹.
Substance “PF11_0521 DBLβ3_D4 T1120A (domain or fragment)” showed a Kd of 21.1 nM, a koff of 0.000298 s⁻¹ and a kon of 14100 M⁻¹ s⁻¹.
Turning to “PF11_0521 DBLβ3_D4 I1078S (domain or fragment)”, the Kd is 1250 nM, the koff is 0.0235 s⁻¹ and the kon worked out at 18800 M⁻¹ s⁻¹.
“PF11_0521 DBLβ3_D4 R1077A (domain or fragment)” gave a Kd of 34.7 nM, a koff of 0.000382 s⁻¹ and a kon of 11000 M⁻¹ s⁻¹.
Turning to “PF11_0521 DBLβ3_D4 H1121A (domain or fragment)”, the Kd was determined as 962 nM, the koff stood at 0.00592 s⁻¹ and the kon is 6100 M⁻¹ s⁻¹.
Turning to “PF11_0521 DBLβ3_D4 G1083A (domain or fragment)”, the Kd stood at 3520 nM, the koff was 0.0701 s⁻¹ and the kon turned out to be 19900 M⁻¹ s⁻¹.
For the substance “PF11_0521 DBLβ3_D4 G1111A (domain or fragment)”, the Kd worked out at 34.1 nM, the koff was determined as 0.000639 s⁻¹ and the kon was 18700 M⁻¹ s⁻¹.
On the same counts, the results for “PF11_0521 DBLβ3_D4 K1124A (domain or fragment)” are 9.75 nM, 0.000154 s⁻¹ and 15900 M⁻¹ s⁻¹.
